# From US20240084039A1
# Target: pre-existing anti-drug antibodies (ADA) present in human sera
# Assay: ELISA pre-existing ADA binding assay, confirmatory setup, test molecule coated, 20 human sera
% positives of total tested serum samples [%],No of positive serum samples above 30% CCP (serum samples),Binder
0,0,PRO2668 (protein) AFELTQSPSSLSASVGDRVTITCQASESINSRLAWYQQKPGQPPKLLIYDASDLTSGVPSRFSGSGSGTDFTLTISSLQPEDFATYYCQGYGGSSTTTFGCGTKLTVLGGGGGSEVQLVESGGGRVQPGGSLRLSCAASGFSLSSYDMSWVRQAPGKGLAWIGASYASGPTYYASWAKGRFTISRDNSKNTVYLQMNSLRAEDTATYFCARGGWTGTSHSNIWGQGTQVTVSSGGGGSGGGGSGGGGSGGGGSDIQMTQSPSSLSASVGDRVTITCQSSQSVFSNNYLAWFQQKPGQSPKRLIYSASTLASGVPSRFSGSGSGTDFTLTISSLQPEDFATYYCLGSYACSSADCYVFGTGTKVTVLGGGGGSEVQLVESGGGRVQPGGSLRLSCAASGFSLSSYAMNWVRQAPGKCLEWIGHINAGDIAYYATWAKGRFTISRDNSKNTVYLQMNSLRAEDTATYFCARGAGGFSTGPFKLWGQGTQVTVSSGGGGSGGGGSAQQLTQSPSSLSASVGDRVTITCQASQNVWNNNYLSWFQQKPGKPPKLLIVTASTLASGVSSRFSGSGSGTDFTLTISSLQPEDFATYYCAGGFSGEIRAFGCGTKVTVLGGGGGSGGGGSGGGGSGGGGSQSQLVESGGGRVQPGGSLRLSCAVSGLSLSRNAMSWVRQAPGKCLEWIGIILTSGSTYYASWAKGRFTISKDNSKNTVYLQMNSLRAEDTATYFCVRGIASSSLKSFWGQGTQVTVSS
15,3,PRO2510 (protein) AFELTQSPSSLSASVGDRVTITCQASESINSRLAWYQQKPGQPPKLLIYDASDLTSGVPSRFSGSGSGTDFTLTISSLQPEDFATYYCQGYGGSSTTTFGCGTKLTVLGGGGGSEVQLVESGGGLVQPGGSLRLSCAASGFSLSSYDMSWVRQAPGKGLAWIGASYASGPTYYASWAKGRFTISRDNSKNTVYLQMNSLRAEDTATYFCARGGWTGTSHSNIWGQGTLVTVSSGGGGSGGGGSGGGGSGGGGSDIQMTQSPSSLSASVGDRVTITCQSSQSVFSNNYLAWFQQKPGQSPKRLIYSASTLASGVPSRFSGSGSGTDFTLTISSLQPEDFATYYCLGSYACSSADCYVFGTGTKVTVLGGGGGSEVQLVESGGGLVQPGGSLRLSCAASGFSLSSYAMNWVRQAPGKCLEWIGHINAGDIAYYATWAKGRFTISRDNSKNTVYLQMNSLRAEDTAVYFCARGAGGFSTGPFKLWGQGTLVTVSSGGGGSGGGGSAQQLTQSPSSLSASVGDRVTITCQASQNVWNNNYLSWFQQKPGKPPKLLIVTASTLASGVSSRFSGSGSGTDFTLTISSLQPEDFATYYCAGGFSGEIRAFGCGTKVTVLGGGGGSGGGGSGGGGSGGGGSQSQLVESGGGLVQPGGSLRLSCAVSGLSLSRNAMSWVRQAPGKCLEWIGIILTSGSTYYASWAKGRFTISKDNSKNTVYLQMNSLRAEDTAVYFCVRGIASSSLKSFWGQGTLVTVSS
30,6,PRO2660 (protein) chain 1: DIQMTQSPSSLSASVGDRVTITCQASESIYSSLAWYQQKPGKAPKLLIYLASTLASGVPSRFSGSGSGTDFTLTISSLQPEDFATYYCQSTDYTTSTHRNSFGTGTKVTVLGGGGGSGGGGSGGGGSGGGGSEVQLVESGGGLVQPGGSLRLSCAASGFSFSTTYYMCWVRQAPGKGLEWIGCTNTASSVRTYYATWAKGRFTISRDNSKNTVYLQMNSLRAEDTAVYYCARDMGFADYALNLWGQGTLVTVSSGGGGSGGGGSEVQLVESGGGLVQPGGSLRLSCAASGFSLSSYDMSWVRQAPGKGLAWIGASYASGPTYYASWAKGRFTISRDNSKNTVYLQMNSLRAEDTATYFCARGGWTGTSHSNIWGQGTLVTVSSGGGSGGGSGGGSGEVQLVESGGGLVQPGGSLRLSCAASGFSLSSYAMNWVRQAPGKCLEWIGHINAGDIAYYATWAKGRFTISRDNSKNTVYLQMNSLRAEDTAVYFCARGAGGFSTGPFKLWGQGTLVTVSS chain 2: DIQMTQSPSSLSASVGDRVTITCQASESIYSSLAWYQQKPGKAPKLLIYLASTLASGVPSRFSGSGSGTDFTLTISSLQPEDFATYYCQSTDYTTSTHRNSFGTGTKVTVLGGGGGSGGGGSGGGGSGGGGSEVQLVESGGGLVQPGGSLRLSCAASGFSFSTTYYMCWVRQAPGKGLEWIGCTNTASSVRTYYATWAKGRFTISRDNSKNTVYLQMNSLRAEDTAVYYCARDMGFADYALNLWGQGTLVTVSSGGGGSGGGGSAFELTQSPSSLSASVGDRVTITCQASESINSRLAWYQQKPGQPPKLLIYDASDLTSGVPSRFSGSGSGTDFTLTISSLQPEDFATYYCQGYGGSSTTTFGCGTKLTVLGGGSGGSDIQMTQSPSSLSASVGDRVTITCQSSQSVFSNNYLAWFQQKPGQSPKRLIYSASTLASGVPSRFSGSGSGTDFTLTISSLQPEDFATYYCLGSYACSSADCYVFGTGTKVTVLG
5,1,PRO2669 (protein) chain 1: DVQMTQSPSSLSASVGDRVTITCRASENIYSGLAWYQQKPGKPPKLLIYRASTLASGVSSRFSGSGSGTDFTLTISSLQPEDFATYYCQGGYYSSSSTYIAFGTGTKVTVLGGGGGSGGGGSGGGGSGGGGSQSQVVESGGGRVQPGGSLRLSCAVSGFDLSSYAVSWVRQAPGKGLEWIGIIYPRANTYYASWAKGRFTISKDNSKNTVYLQMNSLRAEDTATYFCARDRYDSGAYLYTTYFNLWGQGTQVTVSSGGGGSGGGGSAFELTQSPSSLSASVGDRVTITCQASESINSRLAWYQQKPGQPPKLLIYDASDLTSGVPSRFSGSGSGTDFTLTISSLQPEDFATYYCQGYGGSSTTTFGCGTKLTVLGGGSGGSDIQMTQSPSSLSASVGDRVTITCQSSQSVFSNNYLAWFQQKPGQSPKRLIYSASTLASGVPSRFSGSGSGTDFTLTISSLQPEDFATYYCLGSYACSSADCYVFGTGTKVTVLG chain 2: DVQMTQSPSSLSASVGDRVTITCRASENIYSGLAWYQQKPGKPPKLLIYRASTLASGVSSRFSGSGSGTDFTLTISSLQPEDFATYYCQGGYYSSSSTYIAFGTGTKVTVLGGGGGSGGGGSGGGGSGGGGSQSQVVESGGGRVQPGGSLRLSCAVSGFDLSSYAVSWVRQAPGKGLEWIGIIYPRANTYYASWAKGRFTISKDNSKNTVYLQMNSLRAEDTATYFCARDRYDSGAYLYTTYFNLWGQGTQVTVSSGGGGSGGGGSEVQLVESGGGRVQPGGSLRLSCAASGFSLSSYDMSWVRQAPGKGLAWIGASYASGPTYYASWAKGRFTISRDNSKNTVYLQMNSLRAEDTATYFCARGGWTGTSHSNIWGQGTQVTVSSGGGSGGGSGGGSGEVQLVESGGGRVQPGGSLRLSCAASGFSLSSYAMNWVRQAPGKCLEWIGHINAGDIAYYATWAKGRFTISRDNSKNTVYLQMNSLRAEDTATYFCARGAGGFSTGPFKLWGQGTQVTVSS

# Target: pre-existing anti-drug antibodies (ADA) present in human sera
# Assay: ELISA pre-existing ADA binding assay, confirmatory setup, test molecule coated, 40 human sera
% positives of total tested serum samples [%],No of positive serum samples above 31.56% CCP (serum samples),Binder
22.5,9,NM21-1480 (PRO1480) (protein) DIQMTQSPASLSASVGDRVTITCQASQSIGTYLAWYQQKPGKPPKLLIYRAFILASGVPSRFSGSGSGTDFTLTISSLQPEDFATYYCQSNFYSDSTTIGPNAFGTGTKVTVLGGGGGSEVQLVESGGGLVQPGGSLRLSCAASGFSFSANYYPCWVRQAPGKGLEWIGCIYGGSSDITYDANWTKGRFTISRDNSKNTVYLQMNSLRAEDTAVYYCARSAWYSGWGGDLWGQGTLVTVSSGGGGSGGGGSGGGGSGGGGSIQMTQSPSSLSASVGDRVTITCQASQSISNRLAWYQQKPGKAPKLLIYSASTLASGVPSRFSGSGSGTDFTLTISSLQPEDFATYYCQSTYYGNDGNAFGTGTKVTVLGGGGGSEVQLVESGGGLVQPGGSLRLSCAASGFSFNSDYWIYWVRQAPGKGLEWIASIYGGSSGNTQYASWAQGRFTISRDNSKNTVYLQMNSLRAEDTAVYFCARGYVDYGGATDLWGQGTLVTVSSGGGGSGGGGSIQMTQSPSSLSASVGDRVTITCQSSESVYSNNQLSWYQQKPGQPPKLLIYDASDLASGVPSRFSGSGSGTDFTLTISSLQPEDFATYYCAGGFSSSSDTAFGGGTKLTVLGGGGGSGGGGSGGGGSGGGGSEVQLVESGGGLVQPGGSLRLSCAASGFSLSSNAMGWVRQAPGKGLEYIGIISVGGFTYYASWAKGRFTISRDNSKNTVYLQMNSLRAEDTATYFCARDRHGGDSSGAFYLWGQGTLVTVSS
15,6,PRO2759 (protein) DIQMTQSPASLSASVGDRVTITCQASQSIGTYLAWYQQKPGKPPKLLIYRAFILASGVPSRFSGSGSGTDFTLTISSLQPEDFATYYCQSNFYSDSTTIGPNAFGTGTKVTVLGGGGGSEVQLVESGGGLVQPGGSLRLSCAASGFSFSANYYPCWVRQAPGKGLEWIGCIYGGSSDITYDAQWTKGRFTISRDNSKNTVYLQMNSLRAEDTAVYYCARSAWYSGWGGDLWGQGTLVTVSSGGGGSGGGGSGGGGSGGGGSIQMTQSPSSLSASVGDRVTITCQASQSISNRLAWYQQKPGKAPKLLIYSASTLASGVPSRFSGSGSGTDFTLTISSLQPEDFATYYCQSTYYGNDGNAFGTGTKVTVLGGGGGSEVQLVESGGGRVQPGGSLRLSCAASGFSFNSDYWIYWVRQAPGKGLEWIASIYGGSSGNTQYASWAQGRFTISRDNSKNTVYLQMNSLRAEDTATYFCARGYVDYGGATDLWGQGTQVTVSSGGGGSGGGGSIQMTQSPSSLSASVGDRVTITCQSSESVYSNNQLSWYQQKPGQPPKLLIYDASDLASGVPSRFSGSGSGTDFTLTISSLQPEDFATYYCAGGFSSSSDTAFGGGTKLTVLGGGGGSGGGGSGGGGSGGGGSEVQLVESGGGLVQPGGSLRLSCAASGFSLSSNAMGWVRQAPGKGLEYIGIISVGGFTYYASWAKGRFTISRDNSKNTVYLQMNSLRAEDTATYFCARDRHGGDSSGAFYLWGQGTLVTVSS
5,2,PRO2758 (protein) DIQMTQSPASLSASVGDRVTITCQASQSIGTYLAWYQQKPGKPPKLLIYRAFILASGVPSRFSGSGSGTDFTLTISSLQPEDFATYYCQSNFYSDSTTIGPNAFGTGTKVTVLGGGGGSEVQLVESGGGRVQPGGSLRLSCAASGFSFSANYYPCWVRQAPGKGLEWIGCIYGGSSDITYDAQWTKGRFTISRDNSKNTVYLQMNSLRAEDTATYYCARSAWYSGWGGDLWGQGTQVTVSSGGGGSGGGGSGGGGSGGGGSIQMTQSPSSLSASVGDRVTITCQASQSISNRLAWYQQKPGKAPKLLIYSASTLASGVPSRFSGSGSGTDFTLTISSLQPEDFATYYCQSTYYGNDGNAFGTGTKVTVLGGGGGSEVQLVESGGGRVQPGGSLRLSCAASGFSFNSDYWIYWVRQAPGKGLEWIASIYGGSSGNTQYASWAQGRFTISRDNSKNTVYLQMNSLRAEDTATYFCARGYVDYGGATDLWGQGTQVTVSSGGGGSGGGGSIQMTQSPSSLSASVGDRVTITCQSSESVYSNNQLSWYQQKPGQPPKLLIYDASDLASGVPSRFSGSGSGTDFTLTISSLQPEDFATYYCAGGFSSSSDTAFGGGTKLTVLGGGGGSGGGGSGGGGSGGGGSEVQLVESGGGRVQPGGSLRLSCAASGFSLSSNAMGWVRQAPGKGLEYIGIISVGGFTYYASWAKGRFTISRDNSKNTVYLQMNSLRAEDTATYFCARDRHGGDSSGAFYLWGQGTQVTVSS
